± gives the standard error. Variants at the floor of the assay were thinned out.
B1: glmS ribozyme (parent)
chain: AUAAAAGCGCCAGAACUACAGAAAUGUAGUUGACGAGGAGGAGGUUUAUCGAAUUUUCGGCGGAUGCCUCCAAA

Columns and labels:
Details in all cases: with glucosamine-6-phosphate
[1] = variants of: B1; assay: self-cleavage kobs at 40 uM GlcN6P; higher = faster cleavage; RNA array
In short: (§1)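 Barcoded ribozyme variants, transcribed in situ by E. coli RNA polymerase on sequenced MiSeq chips, were followed via a hybridised Cy3 probe at 37 °C. Glucosamine-6-phosphate ranged from 40 μM to 10 mM in HEPES/KCl/Mg(OAc)2 buffer. kobs came from decay fits to per-tile medians, and kcat and KM from weighted Michaelis–Menten fits.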

[2] = variants of: B1; assay: self-cleavage kobs at 640 uM GlcN6P; higher = faster cleavage; RNA array
In short: as §1

[3] = variants of: B1; assay: self-cleavage kobs at 2500 uM GlcN6P; higher = faster cleavage; RNA array
In short: as §1

[4] = variants of: B1; assay: self-cleavage kobs at 10000 uM GlcN6P; higher = faster cleavage; RNA array
In short: as §1

[5] = variants of: B1; assay: self-cleavage kobs at 160 uM GlcN6P; higher = faster cleavage; RNA array
In short: as §1

| Variant | self-cleavage kobs at 40 uM GlcN6P [1] [s⁻¹] | self-cleavage kobs at 640 uM GlcN6P [2] [s⁻¹] | self-cleavage kobs at 2500 uM GlcN6P [3] [s⁻¹] | self-cleavage kobs at 10000 uM GlcN6P [4] [s⁻¹] | self-cleavage kobs at 160 uM GlcN6P [5] [s⁻¹] |
| --- | --- | --- | --- | --- | --- |
| AUAAAAGCUCCAGAACUACAGAAAUGUAGCUGACGCGGAGGAGGUUUAUCGAAUUUUCGGCGGAUGCCUCCAAA | < 1e-05 | < 1e-05 | < 1e-05 |  |  |
| AUAAAAGCGCCAGAACUACAGAAAUGUAGUUGACGAGGAGGAGGUUUAUCGAAUUUGCGGUGGAUGCCUCCAAA | < 1e-05 |  |  |  |  |
| AUAAACGCGCCACAACUACAGAAAUGUAGUUGACGAGGAGGAGGUUUAUCGGAUUUUCGGCGGAUGCCUCCAAA | < 1e-05 |  |  | < 1e-05 |  |
| AUAAAAGCGCCAGAACUACAGAAAUGUAGUUGGCGAGGAGGAGGUUUAUCGAAUUUUCGGCGGAUACCUCCAAA | < 1e-05 |  |  | < 1e-05 | < 1e-05 |
| AUAAAAGCGCCGGAACUACAGAAAUGUAGUUGACGAGGAGGAGCUUUAUCGAAUUUUCGGCGGAUGGCUCCAAA | < 1e-05 |  |  | 0.000225 ± 4.3e-05 |  |
| AUAAAAGCGCCAGAACUACAGAAAUGUAGUUGACGAGGAGGAGGUUAAUCGAAUUUUCGACGGAUGCCUCCAAA | < 1e-05 |  | < 1e-05 |  | < 1e-05 |
| AUAAAAGCACCAGAGCUACAGAAAUGUAGUUGACGAGGAGGAGGUUUAUCGAAUUUUCGGCGGAUGCCUCCAAA | < 1e-05 | < 1e-05 |  | 2.27e-05 ± 1.1e-05 | < 1e-05 |
| AUAAAAGCGCCAGAACUACAGAAAUGUAGUUGAAGGGGAGGAGGUUUAUCGAAUUUUCGGCGGAUGCCUCCAAA | < 1e-05 | < 1e-05 | < 1e-05 | < 1e-05 | < 1e-05 |
| AUAAAAGCGCCAGAACUACAGAAAUGUAGUUGACGAGGAGGAGGUGUAUCGAAUUUUCGGCGGAUGCCUUCAAA | 0.000256 ± 2.3e-05 | 0.00125 ± 0.0002 | 0.00235 ± 0.00055 | 0.00705 ± 0.00083 | 0.000556 ± 8.8e-05 |
| AUAAAAGCGCCAGAACUACAGAAAUGUAGUUGACGAGGAGGAGGUUUAACGAAUUUUCGGCGGAUGACCCCAAA | < 1e-05 |  |  |  |  |
| AUAAAAGCGCCAGAACUACAGAAAUGUAGUUGAUGAGGAGAAGGUUUAUUGAAUUUUCGGCGGAUGCUUCCAAA | < 1e-05 |  | < 1e-05 |  |  |
| AUAAAAGCGCCAGAACUACAGAAAUGUAGUUGACGAGGAGGAGGUUUUUAGAAUUUUCGGCGGAUUCCUCCAAA | < 1e-05 |  |  |  |  |
| AUAAAAGCGCCAGAACUACAGAAAUGUAGUUGACGAGGAGGAGAUUUAUCGAAUUUUCGGCGGAUGCCUCAAAA | < 1e-05 | < 1e-05 | < 1e-05 |  | < 1e-05 |
